Experimental data published in publication PMC5090862, “Coenzyme Engineering of a Hyperthermophilic 6-Phosphogluconate Dehydrogenase from NADP^+ to NAD^+ with Its Application to Biobatteries” (Scientific Reports, 2016).

Legend:
[1] = target: T1, Tm6PGDH (6-phosphogluconate dehydrogenase from Thermotoga maritima) (Thermotoga maritima, UniProt Q9WYR9, N32D/R33L/T34S); assay: NAD(P)H formation at […] nm, Michaelis-Menten fit; type: biochemical; settings: 2 mM 6-phosphogluconate, 5 mM MgCl2, 0.5 mM MnCl2, 100 mM HEPES pH 7.5, 70 °C; apparent Km; read-out: Km (mM) / NADP^+
T1 construct: gene TM_0438; full length in pET20b, C-terminal His tag (LEHHHHHH from primer), E. coli BL21(DE3), Ni-NTA; primers encode N-terminus MKSHIGLI and C-terminus NWEEGEIG before the tag
Text: (§1) (6-phosphogluconate dehydrogenase from Thermotoga maritima)

purified protein [2] = substrate: NC(=O)c1ccc[n+]([C@@H]2O[C@H](COP(=O)(O)OP(=O)(O)OC[C@H]3O[C@@H](n4cnc5c(N)ncnc54)[C@H](O)[C@@H]3O)[C@@H](O)[C@H]2O)c1; assay: purified protein; type: biochemical, Thermotoga maritima; settings: 2 mM 6-phosphogluconate, 5 mM MgCl2, 0.5 mM MnCl2, 100 mM HEPES pH 7.5, 70 °C, apparent Km
Text: as §1

purified protein [3] = substrate: NC(=O)c1ccc[n+]([C@@H]2O[C@H](COP(=O)(O)OP(=O)(O)OC[C@H]3O[C@@H](n4cnc5c(N)ncnc54)[C@H](OP(=O)(O)O)[C@@H]3O)[C@@H](O)[C@H]2O)c1; assay: purified protein; type: biochemical, Thermotoga maritima; settings: 2 mM 6-phosphogluconate, 5 mM MgCl2, 0.5 mM MnCl2, 100 mM HEPES pH 7.5, 70 °C, apparent Km
Text: as §1

| Km [1] [mM] | Molecule | Km (purified protein [2]) [mM] | kcat (purified protein [2]) [s⁻¹] | kcat/Km (purified protein [2]) [M⁻¹ s⁻¹] | Km (purified protein [3]) [mM] | kcat (purified protein [3]) [s⁻¹] | kcat/Km (purified protein [3]) [M⁻¹ s⁻¹] |
| --- | --- | --- | --- | --- | --- | --- | --- |
| > 100 | NC(=O)c1ccc[n+]([C@@H]2O[C@H](COP(=O)(O)OP(=O)(O)OC[C@H]3O[C@@H](n4cnc5c(N)ncnc54)[C@H](OP(=O)(O)O)[C@@H]3O)[C@@H](O)[C@H]2O)c1 [NADP^+] | – | – | – | – | – | – |
| – | Tm6PGDH (6-phosphogluconate dehydrogenase from Thermotoga maritima) (Thermotoga maritima MSB8) (protein, full length in pET20b, C-terminal His tag (LEHHHHHH from primer), E. coli BL21(DE3), Ni-NTA; primers encode N-terminus MKSHIGLI and C-terminus NWEEGEIG before the tag) MKSHIGLIGLAVMGQNLALNIARKGYKVSVYNRTAQRTEEFVKNRVTNEEIEPHYDIESFVKSLERPRKIILMVKAGKPVDDTISQLLPHLEPGDLIIDGGNSHYMDTERRFKELSEKGILFLGMGVSGGEYGALHGPSLMPGGSREAYNLVEEILLEIAAKTEDGPCCTYVGERSAGHFVKMVHNGIEYAIMQAIAEVYHIMRDVLSLSSEEMSSIFEEWNRGELSSFLVEITYKILRKKDEETGKPMVDVILDKAEQKGTGKWTSQAALDLGIPTPSINLAVVERVISHFKDIRTRLSKLYNKRRSATQGSEEFLRDLRNSLFFAMFMAFSQGMWLIAEASKEFGYGVSLSEVLRIWKGGCIIRAKLIDTLRRYISNENAYLLENEEVMNLLKGKIDSLKNILKASIENEIPVPVLSSSYNYFMSLTEERLPANLIQAQRDFFGAHTFERVDREGVFHINWEEGEIG | 4.3 ± 0.4 | 23.3 ± 2 | 5400 | 0.005 ± 0.0004 | 17.6 ± 0.7 | 3.52e+06 |
| – | Tm6PGDH (6-phosphogluconate dehydrogenase from Thermotoga maritima) (Thermotoga maritima MSB8; N32D/R33L/T34S) (protein, full length in pET20b, C-terminal His tag (LEHHHHHH from primer), E. coli BL21(DE3), Ni-NTA; primers encode N-terminus MKSHIGLI and C-terminus NWEEGEIG before the tag) MKSHIGLIGLAVMGQNLALNIARKGYKVSVYDLSAQRTEEFVKNRVTNEEIEPHYDIESFVKSLERPRKIILMVKAGKPVDDTISQLLPHLEPGDLIIDGGNSHYMDTERRFKELSEKGILFLGMGVSGGEYGALHGPSLMPGGSREAYNLVEEILLEIAAKTEDGPCCTYVGERSAGHFVKMVHNGIEYAIMQAIAEVYHIMRDVLSLSSEEMSSIFEEWNRGELSSFLVEITYKILRKKDEETGKPMVDVILDKAEQKGTGKWTSQAALDLGIPTPSINLAVVERVISHFKDIRTRLSKLYNKRRSATQGSEEFLRDLRNSLFFAMFMAFSQGMWLIAEASKEFGYGVSLSEVLRIWKGGCIIRAKLIDTLRRYISNENAYLLENEEVMNLLKGKIDSLKNILKASIENEIPVPVLSSSYNYFMSLTEERLPANLIQAQRDFFGAHTFERVDREGVFHINWEEGEIG | 7.5 ± 0.8 | 25.4 ± 1.4 | 3400 | – | – | – |
| – | Tm6PGDH (6-phosphogluconate dehydrogenase from Thermotoga maritima) (Thermotoga maritima MSB8; N32D) (protein, full length in pET20b, C-terminal His tag (LEHHHHHH from primer), E. coli BL21(DE3), Ni-NTA; primers encode N-terminus MKSHIGLI and C-terminus NWEEGEIG before the tag) MKSHIGLIGLAVMGQNLALNIARKGYKVSVYDRTAQRTEEFVKNRVTNEEIEPHYDIESFVKSLERPRKIILMVKAGKPVDDTISQLLPHLEPGDLIIDGGNSHYMDTERRFKELSEKGILFLGMGVSGGEYGALHGPSLMPGGSREAYNLVEEILLEIAAKTEDGPCCTYVGERSAGHFVKMVHNGIEYAIMQAIAEVYHIMRDVLSLSSEEMSSIFEEWNRGELSSFLVEITYKILRKKDEETGKPMVDVILDKAEQKGTGKWTSQAALDLGIPTPSINLAVVERVISHFKDIRTRLSKLYNKRRSATQGSEEFLRDLRNSLFFAMFMAFSQGMWLIAEASKEFGYGVSLSEVLRIWKGGCIIRAKLIDTLRRYISNENAYLLENEEVMNLLKGKIDSLKNILKASIENEIPVPVLSSSYNYFMSLTEERLPANLIQAQRDFFGAHTFERVDREGVFHINWEEGEIG | 4.0 ± 0.1 | 29.3 ± 1.2 | 7300 | 2.3 ± 0.1 | 16.7 ± 1 | 7300 |
| – | Tm6PGDH (6-phosphogluconate dehydrogenase from Thermotoga maritima) (Thermotoga maritima MSB8; N32D/R33I/T34I) (protein, full length in pET20b, C-terminal His tag (LEHHHHHH from primer), E. coli BL21(DE3), Ni-NTA; primers encode N-terminus MKSHIGLI and C-terminus NWEEGEIG before the tag) MKSHIGLIGLAVMGQNLALNIARKGYKVSVYDIIAQRTEEFVKNRVTNEEIEPHYDIESFVKSLERPRKIILMVKAGKPVDDTISQLLPHLEPGDLIIDGGNSHYMDTERRFKELSEKGILFLGMGVSGGEYGALHGPSLMPGGSREAYNLVEEILLEIAAKTEDGPCCTYVGERSAGHFVKMVHNGIEYAIMQAIAEVYHIMRDVLSLSSEEMSSIFEEWNRGELSSFLVEITYKILRKKDEETGKPMVDVILDKAEQKGTGKWTSQAALDLGIPTPSINLAVVERVISHFKDIRTRLSKLYNKRRSATQGSEEFLRDLRNSLFFAMFMAFSQGMWLIAEASKEFGYGVSLSEVLRIWKGGCIIRAKLIDTLRRYISNENAYLLENEEVMNLLKGKIDSLKNILKASIENEIPVPVLSSSYNYFMSLTEERLPANLIQAQRDFFGAHTFERVDREGVFHINWEEGEIG | 3.9 ± 0.4 | 32.2 ± 2.2 | 8300 | 70 ± 17 | 15.9 ± 5.8 | 200 |
| – | Tm6PGDH (6-phosphogluconate dehydrogenase from Thermotoga maritima) (Thermotoga maritima MSB8; N32E/R33I/T34I) (protein, full length in pET20b, C-terminal His tag (LEHHHHHH from primer), E. coli BL21(DE3), Ni-NTA; primers encode N-terminus MKSHIGLI and C-terminus NWEEGEIG before the tag) MKSHIGLIGLAVMGQNLALNIARKGYKVSVYEIIAQRTEEFVKNRVTNEEIEPHYDIESFVKSLERPRKIILMVKAGKPVDDTISQLLPHLEPGDLIIDGGNSHYMDTERRFKELSEKGILFLGMGVSGGEYGALHGPSLMPGGSREAYNLVEEILLEIAAKTEDGPCCTYVGERSAGHFVKMVHNGIEYAIMQAIAEVYHIMRDVLSLSSEEMSSIFEEWNRGELSSFLVEITYKILRKKDEETGKPMVDVILDKAEQKGTGKWTSQAALDLGIPTPSINLAVVERVISHFKDIRTRLSKLYNKRRSATQGSEEFLRDLRNSLFFAMFMAFSQGMWLIAEASKEFGYGVSLSEVLRIWKGGCIIRAKLIDTLRRYISNENAYLLENEEVMNLLKGKIDSLKNILKASIENEIPVPVLSSSYNYFMSLTEERLPANLIQAQRDFFGAHTFERVDREGVFHINWEEGEIG | 2.5 ± 0.2 | 47.9 ± 2.2 | 19200 | 79 ± 20 | 15.9 ± 7.9 | 200 |
